doi:10.1101/2025.03.12.642038, “Structural, biophysical and biological analysis and characterisation of IRF4 DNA-binding domain mutations associated with multiple myeloma”
Where a chain is given by its changes, count along the chain named.

Tests used:
Assay in all cases: SPR two-state kinetic; FP: PBS + 0.05% Tween20, 5 nM DNA, 1 h, room temperature; SPR: Biacore S200, SA chip, protein 0.1-4500 nM, running buffer not given in material; errors are SD
Settings in all cases: protein: recombinant; tags: N-terminal His8-linker-His8-TEV, cleaved; label: 3' biotin; hairpin, TTTT loop
IRF4 DBD K59R = biological target: T1, IRF4 DBD K59R (Homo sapiens, UniProt Q15306 20-132, K59R)
T1 sequence: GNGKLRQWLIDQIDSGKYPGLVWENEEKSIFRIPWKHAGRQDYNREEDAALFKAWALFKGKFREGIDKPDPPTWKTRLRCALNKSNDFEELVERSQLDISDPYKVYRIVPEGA

IRF4 DBD D117A = biological target: T2, IRF4 DBD D117A (Homo sapiens, UniProt Q15306 20-132, D117A)
T2 sequence: T1 sequence with R40K, D98A

IRF4 DBD K59N = biological target: T3, IRF4 DBD K59N (Homo sapiens, UniProt Q15306 20-132, K59N)
T3 sequence: T1 sequence with R40N

IRF4 DBD D106Y = biological target: T4, IRF4 DBD D106Y (Homo sapiens, UniProt Q15306 20-132, D106Y)
T4 sequence: T1 sequence with R40K, D87Y

B1: IRE hairpin (biotin) (structured_DNA)
DNA: CTTGGTTTCACTTCCTGCGTTTTCGCAGGAAGTGAAACCAAG
Q: What does the source list for B1?
A: Kd (IRF4 DBD K59R): 460 ± 429 nM; Kd (IRF4 DBD D117A): 293 ± 213 nM; Kd (IRF4 DBD K59N): 107 ± 133 nM; Kd (IRF4 DBD D106Y): 135 ± 121 nM
